Experimental data published in patent publication US20100028370A1 (RAPTOR PHARMACEUTICAL, published 2010).

Molecular target: mLRP/LRPTmMegT mini-receptor (fourth ligand binding and transmembrane domains of LRP1 with the C-terminal … (UniProt Q07954 3293-4444))
Assay: cell-based or functional assay

Chain of mLRP/LRPTmMegT mini-receptor (fourth ligand binding and transmembrane domains of LRP1 with the C-terminal … (Q07954 3293-4444): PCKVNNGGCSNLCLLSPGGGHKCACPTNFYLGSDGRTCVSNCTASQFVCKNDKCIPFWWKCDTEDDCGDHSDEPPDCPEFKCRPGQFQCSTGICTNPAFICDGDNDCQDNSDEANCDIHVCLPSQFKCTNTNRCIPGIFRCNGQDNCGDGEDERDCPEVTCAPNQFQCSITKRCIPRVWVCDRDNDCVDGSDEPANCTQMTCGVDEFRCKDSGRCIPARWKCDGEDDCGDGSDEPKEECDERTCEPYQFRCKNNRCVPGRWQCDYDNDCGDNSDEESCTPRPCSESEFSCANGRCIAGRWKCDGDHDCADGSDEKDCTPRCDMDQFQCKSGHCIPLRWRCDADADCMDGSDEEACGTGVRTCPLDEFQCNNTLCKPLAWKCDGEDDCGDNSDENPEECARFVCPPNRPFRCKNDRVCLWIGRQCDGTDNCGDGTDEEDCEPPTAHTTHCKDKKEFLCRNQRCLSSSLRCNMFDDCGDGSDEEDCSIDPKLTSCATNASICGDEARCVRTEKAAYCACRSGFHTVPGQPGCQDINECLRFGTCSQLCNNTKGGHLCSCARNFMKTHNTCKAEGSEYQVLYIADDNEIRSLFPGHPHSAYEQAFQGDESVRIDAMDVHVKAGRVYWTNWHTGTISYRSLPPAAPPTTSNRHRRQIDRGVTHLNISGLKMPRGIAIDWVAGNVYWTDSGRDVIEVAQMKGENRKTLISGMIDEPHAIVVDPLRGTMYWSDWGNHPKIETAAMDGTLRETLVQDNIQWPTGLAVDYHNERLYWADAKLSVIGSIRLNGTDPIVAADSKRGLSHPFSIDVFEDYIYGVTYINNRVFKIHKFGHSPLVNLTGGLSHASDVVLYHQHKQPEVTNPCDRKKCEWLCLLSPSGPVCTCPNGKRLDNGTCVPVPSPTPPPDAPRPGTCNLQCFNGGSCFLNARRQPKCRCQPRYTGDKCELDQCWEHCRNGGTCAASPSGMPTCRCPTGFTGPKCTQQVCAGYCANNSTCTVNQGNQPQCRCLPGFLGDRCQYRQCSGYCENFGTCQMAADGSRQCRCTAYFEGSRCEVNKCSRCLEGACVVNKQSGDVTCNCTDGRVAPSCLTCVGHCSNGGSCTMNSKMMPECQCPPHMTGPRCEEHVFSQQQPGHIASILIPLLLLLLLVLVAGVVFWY

ratio of the apical-to-basolateral to the basolateral-to-apical permeability coefficient of 125I-RAP in MEGt-transfected MDCK cells: 460 fold
B1: receptor-associated protein (RAP) (ligand)
chain: YSREKNQPKPSPKRESGEEFRMEKLNQLWEKAQRLHLPPVRLAELHADLKIQERDELAWKKLKLDGLDEDGEKEARLIRNLNVILAKYGLDGKKDARQVTSNSLSGTQEDGLDDPRLEKLWHKAKTSGKFSGEELDKLWREFLHHKEKVHEYNVLLETLSRTEEIHENVISPSDLSDIKGSVLHSRHTELKEKLRSINQGLDRLRRVSHQGYSTEAEFEEPRVIDLWDLAQSANLTDKELEAFREELKHFEAKIEKHNHYQKQLEIAHEKLRHAESVGDGERVSRSREKHALLEGRTKELGYTVKKHLQDLSGRISRARHNEL
